# Target: CRF2-4/zcytor11 heterodimeric receptor (on BaF3/CRF2-4/zcytor11 cells) (human) (UniProt Q08334)
# Assay: cell-based or functional assay
# CRF2-4/zcytor11 heterodimeric receptor (on BaF3/CRF2-4/zcytor11 cells) (human), sequence (Q08334 20-325 limits assumed, chain 1 of 2): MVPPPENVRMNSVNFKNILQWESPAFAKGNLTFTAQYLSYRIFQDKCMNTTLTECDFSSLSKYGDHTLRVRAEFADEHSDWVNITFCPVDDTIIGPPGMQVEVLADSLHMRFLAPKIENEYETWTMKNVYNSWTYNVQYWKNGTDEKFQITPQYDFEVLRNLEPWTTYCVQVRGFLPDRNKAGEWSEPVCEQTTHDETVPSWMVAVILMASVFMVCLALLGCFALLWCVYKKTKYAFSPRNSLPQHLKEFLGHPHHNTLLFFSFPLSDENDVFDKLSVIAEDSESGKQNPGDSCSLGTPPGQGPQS
# CRF2-4/zcytor11 heterodimeric receptor (on BaF3/CRF2-4/zcytor11 cells) (human), sequence (chain, as listed by the source limits assumed, chain 2 of 2): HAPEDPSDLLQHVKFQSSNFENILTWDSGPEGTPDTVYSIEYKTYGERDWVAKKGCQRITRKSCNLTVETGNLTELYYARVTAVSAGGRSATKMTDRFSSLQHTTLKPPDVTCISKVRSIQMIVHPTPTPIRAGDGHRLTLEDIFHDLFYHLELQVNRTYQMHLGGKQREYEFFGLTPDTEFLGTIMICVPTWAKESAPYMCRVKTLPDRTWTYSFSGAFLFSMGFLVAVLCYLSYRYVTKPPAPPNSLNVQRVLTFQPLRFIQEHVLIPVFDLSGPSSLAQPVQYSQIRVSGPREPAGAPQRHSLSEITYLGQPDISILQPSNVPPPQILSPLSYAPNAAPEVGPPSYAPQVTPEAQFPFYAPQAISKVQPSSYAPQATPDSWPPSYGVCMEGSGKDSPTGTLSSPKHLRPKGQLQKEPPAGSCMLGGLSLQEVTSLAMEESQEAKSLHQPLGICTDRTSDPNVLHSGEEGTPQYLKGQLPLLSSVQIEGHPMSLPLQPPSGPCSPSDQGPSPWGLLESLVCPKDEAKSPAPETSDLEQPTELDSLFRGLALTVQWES
substance,measurement,value
purified human IL-TIF-CEE (IL-TIF with C-terminal Glu-Glu tag) (from UniProt Q9GZX6 34-179) (ligand),"proliferation of BaF3/CRF2-4/zcytor11 cells (Alamar Blue), IL-TIF-CEE at 0.06 ng/ml (fold induction)",2
same,"proliferation of BaF3/CRF2-4/zcytor11 cells (Alamar Blue), IL-TIF-CEE at 50 ng/ml (fold over background)",15

# Source: patent US20030077706A1
